Reference: publication PMC10252337

Legend:
[1] = molecular target: eel luteinizing hormone receptor D576G (constitutively activating mutant) (eel)
[2] = molecular target: eel luteinizing hormone receptor, wild type (eel)
[3] = molecular target: eel luteinizing hormone receptor D576G (constitutively activating mutant) (eel); remark: listed apart in the source
[4] = molecular target: eel luteinizing hormone receptor, wild type (eel); remark: listed apart in the source
[5] = molecular target: eel luteinizing hormone receptor R476H (inactivating mutant) (eel)

| EC50 of cAMP production (HTRF) in CHO-K1 cells expressing the receptor, stimulated with rec-eel LH for 30 min [1] | EC50 of cAMP production (HTRF) in CHO-K1 cells expressing the receptor, stimulated with rec-eel LH for 30 min [2] | plateau of agonist-induced loss of cell-surface receptor (ELISA on HEK-293 cells, 0-60 min, one-phase exponential decay) [3] | t1/2 of agonist-induced loss of cell-surface receptor (ELISA on HEK-293 cells, 0-60 min, one-phase exponential decay) [3] | plateau of agonist-induced loss of cell-surface receptor (ELISA on HEK-293 cells, 0-60 min, one-phase exponential decay) [4] | t1/2 of agonist-induced loss of cell-surface receptor (ELISA on HEK-293 cells, 0-60 min, one-phase exponential decay) [4] | plateau of agonist-induced loss of cell-surface receptor (ELISA on HEK-293 cells, 0-60 min, one-phase exponential decay) [5] | t1/2 of agonist-induced loss of cell-surface receptor (ELISA on HEK-293 cells, 0-60 min, one-phase exponential decay) [5] | Substance |
| --- | --- | --- | --- | --- | --- | --- | --- | --- |
| 0.0948 µg/mL | 0.177 µg/mL | 59.8 % of control | 0.6 min | 64.2 % of control | 0.9 min | 61.9 % of control | 0.6 min | recombinant eel luteinizing hormone, single-chain eel LHβ/α (ligand) |
|  |  | 46.3 % of control | 2.1 min | 56.8 % of control | 2.5 min | 42.6 % of control | 1.9 min | recombinant equine chorionic gonadotropin (from UniProt P08751 21-169; P01220 25-120) (ligand) |
